Experimental data reported in patent US20240002491A1, “METHODS FOR SELECTING PATIENTS FOR TREATMENT WITH AN NGF ANTAGONIST” (Regeneron Pharmaceuticals, Inc., priority 2022, published 2024).

How the values were obtained:
[1] = test system: patients with OA of the knee and/or hip; experiment: ISS post-hoc analysis combining OA joint burden and alkaline phosphatase cut-off (weeks 8-16); assay type: in vivo, human
Excerpt: Both the baseline burden of OA and the change in alkaline phosphatase identify patients with higher risk of AA/DA/JR; these findings are observed only in the fasinumab arms, not the placebo arm, indicating an NGF-specific mechanism. The results raise the possibility of excluding high-risk patients and treating only patients with lower risk of joint-related adverse events, using more than one approach. To understand whether there is an interaction between the two approaches, and to explore a number of potential risk mitigation options, a post-hoc analysis was performed on the ISS data set to examine the impact of alkaline phosphatase within various joint subgroups. Because efficacy was preserved in the 1-2 and 3-4 joint subgroups as discussed above, the rates of AA/DA/JR were examined in overlapping subgroups: patients with 1-2, 1-3 and 1-4 joints with OA at baseline. For each of these subgroups, five potential cut-offs for change in alkaline phosphatase were explored: no change, 5-, 10-, 15- and 20-point change from baseline.
FIGS. 8A-8D show the percentage of patients with AA/DA/JR following exclusion of those who have a change in alkaline phosphatase at or above the designated cut-off at any time between weeks 8 and 16. In each of FIGS. 8A-8D, the X-axis represents overlapping bins of patients that become successively smaller as one looks left to right (percentage of the total population remaining in each bin is shown in the table beneath the graph). […] The next 5 bins to the right show the rates of AA/DA/JR in the patients who remain after excluding those above the designated cut-off for change in alkaline phosphatase. The placebo rate from the total ISS population is expressed as a solid black line.
For each of the joint related adverse events, the burden of OA and change in alkaline phosphatase are complementary from the perspective of risk-reduction. FIGS. 8A, 8C, and 8E show the reduction of risk of JR, AA, and DA, respectively, in patients treated with 1 mg fasinumab Q8W, for patients with different OA burden at different cut-off values for change in alkaline phosphatase. Similarly, FIGS. 8B, 8D, and 8F show the reduction of risk of JR, AA, and DA, respectively, in patients treated with 1 mg fasinumab Q4W, for patients with different OA burden at different cut-off values for change in alkaline phosphatase. For example, for the 1Q4 treatment arm and in the 1-2 joint subgroup, the JR rate is reduced from 7.4% in the total ISS population, to 6.4% in the 1-2 joint subgroup, to 5.5% in the population below the 20-point alkaline phosphatase cut-off—a difference of 0.4% from the ISS placebo rate (FIG. 8B). Similarly, for the 1Q4 treatment arm and in the 1-2 joint subgroup, the overall AA rate (70-80% RPDA-1) is reduced from 9.2% in the total ISS population, to 7.7% in the 1-2 joint subgroup, to 7.1% in the population below the 20-point alkaline phosphatase cut-off—a difference of 5.6% from the ISS placebo rate (FIG. 8D). Last, the DA rate is reduced from 0.5% in the total ISS population, to 0.3% in the 1-2 joint subgroup, to 0.1% in the population below the 20-point alkaline phosphatase (FIG. 8F).

[2] = test system: adults with moderate-to-severe chronic pain associated with osteoarthritis (OA) of the knee or hip; experiment: FACT OA1 (NCT03161093, R475-OA-1611) Phase 3 trial, WOMAC pain and physical function; assay type: in vivo, human
Excerpt: NCT02683239 (R475-PN-1523, or “FACT LTS”), NCT03161093 (R475-OA-1611, or “FACT OA1”), and NCT03304379 (R475-OA-1688, or “FACT OA2”) each were Phase 3 trials evaluating fasinumab in adults with moderate-to-severe chronic pain associated with osteoarthritis (OA) of the knee or hip. All three of these trials enrolled patients with OA of the knee or hip who had inadequate pain relief with acetaminophen and were intolerant to or had inadequate pain relief with opioids, or were unwilling or unable to take opioids. Complete inclusion and exclusion criteria for the trials are described at clinicaltrials.gov/ct2/show/NCT03161093, clinicaltrials.gov/ct2/show/NCT03304379, and clinicaltrials.gov/ct2/show/NCT02683239.
FACT OA1 and FACT OA2 assessed the efficacy of fasinumab in comparison to nonsteroidal anti-inflammatory drugs (NSAIDs; naproxen, diclofenac, or celecoxib) for treatment of OA. FACT OA1 includes results from a total of 1,801 patients randomized to one of four treatment arms: fasinumab 1 mg SC once every 8 weeks (Q8W) (n=304), fasinumab 1 mg SC once every 4 weeks (Q4W) (n=639), naproxen 500 mg twice daily (n=644), or placebo (n=214). In FACT OA2, patients were randomized into one of six treatment groups: fasinumab 1 mg SC once every 4 weeks (Q4W), fasinumab 3 mg SC once every 4 weeks (Q4W), fasinumab 6 mg SC once every 8 weeks (Q8W), celecoxib 200 mg once daily, diclofenac 75 mg twice daily, or placebo. While the FACT OA2 trial was still ongoing, enrollment into the fasinumab 3 mg Q4W and 6 mg Q8W groups was stopped for safety considerations; patients enrolled in those dose regimens discontinued study drug and entered the post-treatment follow-up period.
Fasinumab patients in both trials also reported improvements in their pain and physical function (WOMAC score) compared to those treated with the highest-approved prescription doses of NSAIDS.

[3] = test system: patients with OA of the knee and/or hip; experiment: Integrated summary of efficacy (ISE): change in WOMAC pain subscale score at 16 weeks by joint subgroup; assay type: in vivo, human; conditions: 1Q4 and 1Q8 regimens; all joint subgroups; 95% confidence intervals excluded zero only for the 1-2 and 3-4 joint subgroups
Excerpt: The integrated summary of efficacy (ISE) examined the change in WOMAC pain subscale score at 16 weeks in each of the above subgroups and is illustrated in the Forrest plot below (FIG. 4).

alkaline phosphatase = conditions: cited from earlier work
[4] = 1Q4, 1-2 joint subgroup, below the 20-point alkaline phosphatase cut-off
[5] = 1Q4, 1-2 joint subgroup, lower cut-offs for change in alkaline phosphatase
[6] = FACT OA1, Week 16, fasinumab 1 mg Q4W, naproxen 2 × 500 mg/day

For “Fasinumab: fully-human high-affinity monoclonal antibody directed against NGF; HCVR/LCVR SEQ ID NOs: 2/10”, the “DA rate, difference from placebo rate” value ([1]; 1 mg Q4W, alkaline phosphatase cut-off of 20) was 0.1%, the DA rate [1, 4] was 0.1% and the JR rate [1, 4] was 5.5%. The “JR rate, difference from the ISS placebo rate” value [1, 4] was 0.4%, the “overall AA rate” value [1, 4] was 7.1% and the “overall AA rate, difference from the ISS placebo rate” value [1, 4] was 5.6%. The “overall AA rate” value [1, 5] was 4.6%, the “overall AA rate, difference from the placebo rate” value [1, 5] was 2.5% and the “rates of JR and DA” value [1, 5] was “approximately the placebo rates”. The DA rate ([1]; 1Q4, total ISS population) was 0.5%, the JR rate ([1]; 1Q4, total ISS population) was 7.4% and the “overall AA rate” value ([1]; 1Q4, total ISS population) was 9.2%. For the same substance, the “WOMAC pain, change from baseline” value [2, 6] was −39%, the “WOMAC pain, change from baseline (score, in brackets)” value [2, 6] was “(−2.48)” and the “WOMAC physical function, change from baseline” value [2, 6] was −39%. The “WOMAC physical function, change from baseline (score, in brackets)” value [2, 6] was “(−2.41)”, the “WOMAC physical function, difference vs. placebo” value ([2]; FACT OA1, Week 16, fasinumab 1 mg Q4W, p = 0.0001) was −0.67 and the “WOMAC pain, difference vs. placebo” value ([2]; FACT OA1, Week 16, fasinumab 1 mg Q4W, p = 0.0003) was −0.66. The “WOMAC physical function, difference vs. naproxen” value ([2]; FACT OA1, Week 16, fasinumab 1 mg/month vs naproxen 2 × 500 mg/day, nominal p = 0.0006) was −0.41, the “WOMAC pain, difference vs. naproxen” value ([2]; FACT OA1, Week 16, fasinumab 1 mg/month vs naproxen 2 × 500 mg/day, nominal p = 0.0050) was −0.35 and the “co-primary endpoints: pain and physical function compared to placebo” value ([2]; FACT OA1, fasinumab 1 mg Q4W, p<0.01 for all endpoints) was “significantly reduced pain and improved physical function compared to placebo”. For the same substance, the “change in WOMAC pain subscale score at 16 weeks compared with placebo” value [3] was “numerically greater improvement compared with placebo”, the “mean increase in alkaline phosphatase following initiation of therapy” value (alkaline phosphatase; depending upon dose) was 5 to 10 U/L and the “time of peak of the mean increase in alkaline phosphatase” value (alkaline phosphatase; following initiation of therapy) was “approximately 16 weeks”.
